From the DeepSol protein solubility set

Assay: soluble on expression in E. coli; label from the status in PepcDB or PDB records

Sequence	soluble on expression in E. coli
MGSDKIHHHHHHMLKKQLFADRLLAQMPSLRALRCFVTAARYESFTQAAEVLCVTQAAVSRQIKELEDSLDVALFERTGRHIALTDAGRILYNASYLSIMNIAEAAEAVRRTDKHALMICVSHTFSALWLSSRLPAFRERFPDIRLNLIVTEHFMELDGLIEPDVIITKNPPREPEFDVEPMFHDIVYPVCSPAFHERHFHGRSLKPLDLLSRPTLNLSMLGRAQVCEHVDWRVWRNWFQQGDGTDTLTENKYLESNDYRLLVAQAEAGEGTLLGWHHLVHRQIDQGILMRPVQDVLVFRDRHHYLITHRNAQPRPEYQQFRQWLNDEVGVMMRGWLDAGVEGEQ	not soluble
MLYEKFEYNINNLIGNFGLSKIAIAVSGGSDSISLLYLANIWARKNNIELFVISVDHNLRPQSKQENYYIHTISSNLNRKYYNLSFDHQNNFSNLQERAREGRYDLMTNLCLELDVLVLLTAHHEDDYVENFCLRLERNSGIFGLSSSNIHWYNNIQIIRPLYNIPKSELVEYLVNHKIKWFEDESNLSDKYRRNIIRQKLFKEENYIKAEISLQQLKTNKLIEDELKPALISAIAEAVKIFEYGFTFLDLVKFDKFLNEVKAQIINFLLIMISGQSRSARFYSIAHILKLISQDINFKNTVHGCVIKRIQNELLIYREFGKKLPKSKILLDKSVIWDNRFCITKNQKTPDCVITYLSLADYKAIKKQLDLKHLKNLSCKNHNAILFTLPIIKILEKVIAIPHISYYDNDVWNFEVSFAPNFVSRFTHFC	not soluble
MGSDKIHHHHHHMAKQLPDIGDYKYGFKDKDVSIFRAGRGLTKEIVEEISRMKEEPQWMLDFRLKSLDKFYEMPMPQWGGDLNDLDFDEITYYVKPSEKSEKSWDEVPDEIKATFDKLGIPEAEQKYLAGVSAQYESEVVYHNMKEDLEALGIVFKDTDSALKENEDIFREHFGKVIPPTDNKFAALNSAVWSGGSFIYVPKGVKVDTPLQAYFRINSENMGQFERTLIIVDEGAHVHYVEGCTAPVYTTNSLHSAVVEIIIKKDAYCRYTTIQNWANNVYNLVTKRAVCEENATMEWIDGNIGSKLTMKYPAVILKGEGARGLTLSIAIAGKGQHQDAGAKMIHLAPNTSSTIVSKSIAKHGGKVTYRGIVHFGPKAKNSRSNIECDTLIMDNQSTSDTIPYNEIKNDYVSLEHEAKVSKVSEEQLFYLMSRGISEQEATEMIVMGFIEPFTRELPMEYAVEMNRLIKFEMEGSIG	not soluble
MEALDSSSFTFPQDYEFSYVVNHNCSADGNTYCVQPVKPTTVSRFGTRYIKFDIKALPVGSPIPCKSPKEWRVIKG	not soluble
MGSDKIHHHHHHMEEANFYHALKIDNDRCIGCTHCMKECPTGAIRIRDGKALIHKDWCVDCGECLKSCPTEAIYVEQDDFQRIFDYKCRVALMPTVFIGQFSKYTTEKEIISAVMELGFTHVFQVEFTADMIHKEMVRQMENAEEKPVISSFCPAIVRLIQVRFPALVDNILLVKAPVNASATYYHKILEGQGVPSEEIGIFYVTPCAAKIAALKGAEGYSSTIKGVINMDTLYNKVYHILKNRPRGYEPECELPPPLTKKEMRWSQTGGEAKHFSGRCLAIDEIHNVIDFLERMETTSEVRNVDFLELRACDRSCAGGVLAVANRFLTAERIMKRSMNRDKVPMIYAADNFEALSYLRQHITIRPVQPNPKRLYDGTIDEMLKKMEQVRKLMCYLPGIDCGACGSPNCQSLAEDIVRHEAQFSDCVFMQRNMEKHGKLDQEHAFRIVEKTWGKDRLNKDCYKKGAKYEGL	not soluble
APADKPQVLASFTQTSASSQNAWLAANRNQSAWAAYEFDWSTDLCTQAPDNPFGFPFNTACARHDFGYRNYKAAGSFDANKSRIDSAFYEDMKRVCTGYTGEKNTACNSTAWTYYQAVKIFG	soluble
GGGGGGMADLFSTVQEKVAGKDVKIVFPEGLDERILEAVSKLAGNKVLNPIVIGNENEIQAKAKELNLTLGGVKIYDPHTYEGMEDLVQAFVERRKGKATEEQARKALLDENYFGTMLVYKGLADGLVSGAAHSTADTVRPALQIIKTKEGVKKTSGVFIMARGEEQYVFADCAINIAPDSQDLAEIAIESANTAKMFDIEPRVAMLSFSTKGSAKSDETEKVADAVKIAKEKAPELTLDGEFQFDAAFVPSVAEKKAPDSEIKGDANVFVFPSLEAGNIGYKIAQRLGNFEAVGPILQGLNMPVNDLSRGCNAEDVYNLALITAAQAL	soluble
SGSSEDQAYRLLNDYANGFMVSQVLFAACELGVFDLLAEAPGPLDVAAVAAGVRASAHGTELLLDICVSLKLLKVETRGGKAFYRNTELSSDYLTTVSPTSQCSMLKYMGRTSYRCWGHLADAVREGRNQYLETFGVPAEELFTAIYRSEGERLQFMQALQEVWSVNGRSVLTAFDLSVFPLMCDLGGDFFKDPLPEADLYILARVLHDWADGKCSHLLERIYHTCKPGGGILVIESLLDEDRRGPLLTQLYSLNMLVQTEGQERTPTHYHMLLSSAGFRDFQFKKTGAIYDAILARK	soluble
MGSDKIHHHHHHMNARTLDPTERLIEKEPYYEPVGEEIALFEAAYRQRIPVLLKGPTGCGKTRFMEHMAWRLQRPLITVSCHDDLTASDLVGRYLVKGGETVWVDGPLTRAVRCGGICYLDEIVEARKDTMVVIHPLADDRRTLAMEKLGQMLEAPAEFCLAISYNPGYQSVLKDLKQSTRQRFVALEFDYPSAALEQRIVATESGVSDAVADKLVRFAQMTRNLKGSGLEEGASTRLLVHAGKLISDGISPVTACKSAVAQAVTDDADMLKAIQELSSSVF	not soluble
MGSDKIHHHHHHMRIYSFYNENARRETLEEHVATALKLLDSAENSKLVKYGKKLSPEFERAVKLAIIFHDTGKVFFQIKKGYGYMSFRGHEYFSTYIFDVFARRLIKSEIENYEALSELRKICNFSIFFHHHAMNIRMREPEAGSNIKAGLKLLDVLYSEVKRFLEDKEKKALKAALEEVKEKGTANLTGYVKGEIVREVWRNAMDSSKLKRLCYLNLLVLIAADYSSAALNRGGNKTPFGRVVEEFSEFYLK	not soluble
MGHHHHHHSHNEPEDSKLRFETYQLIWQQMKSENERLQEELNKNLFDNLIEFLQKSHSGFQKNSRDLGGQIKLREIPTAALVLGVNVTDHDLTFGSLTEALQNNVTPYVVSLQAKDCPDMKHFLQKLISQLMDCCVDIKSKEEESVHVTQRKTHYSMDSLSSWYMTVTQKTDP	not soluble
GVKCEPIEELTINVPEEYSSKIIDMVTRRKGEMTMMENTGERINLEFDMPSRGIIGLRTNVLTASAGEAIMAHRFKEYQPFKGDIERRTNGSIIAMESGTAFAYAIDKLQDRGKFFIFPQEEVYAGQV	not soluble
MGSDKIHHHHHHMQFTDAVTVAGTRRTADGYLVATARAVRTGIQLYAGHEVGKPDQEVVRVYRAADQVFSTESLQSFSHAPITVDHPDEEVSAENWKALSVGEVSTAAKQDGQWVMLPLILKDAAAIKSVMDGKRELSAGYTCDLDFTPGVTADGEPYDAQQRGIRINHLALVDRARAGSKARIGDDGGPWGAAPISTTDKETITMSDALRTVVVDGLSVTTTDQGAQAISKLLKDLESSAAKLVDAQTRYQAALAAKDADLAKAHAERDAANAKVLSDADLDKRVAARADLITKAKAIAKDVKTDGLSDSAIRKAAVTAALGDAAVRDKADAYIDARFDILVEDAAKKSGGADPFRQVVQNGLQTADNTNGAAAAHNAMVRDMSSAWMMKKEA	not soluble
MGKALPFYLSPYPVDFWTNASFSDEEHEDAALSNSHLGRNAMVPPQGRSGPASWILRSVRDPGFAPCPPWSWIYHQFRIAWLRCVVRMDGRAPQVQTGQSTSPAKAASNATALQDQA	not soluble
MRAWPIHLHVGSIERSSALLVGGCNVVYGLSSHEKSNVGFGEVGSQSWIAQNRVLLFDPDGIDMPVDDRDMHVLQTRQQAPIDTRIAFQGLGVNSMQQNAGVFVGDAQITGWDQHQKSNKASGDIGGDHNVEIAGLHVNYDADGMDGVFLDSDHKAGTFVRQG	not soluble
MKVLVTGATSGLGRNAAQWLLEAGHEVYAIGRDQLAGEELRKLGATFIPLDLTMTTMEVCQQWLKTCDVVWHCAAKSAPWGNPQDFHQTNVVVTHKLAQAAGREGVKRFIHISSPAVYFDFRHHHDLPETYRASRFSSHYASSKYAAEQVLHECIAHYPDTTYVILRPRGLFGPHDRVIVPRLLQQLSRDRNVLRLPGGGQAQLDLTFVLNVVHAMMLATDNDGLRSGAIYNITNQEPQRLVTMLDSLLNQQLHINYTLQPVPYSLLSVVAAGMELVASMTQKEPLLTRYSVGAVYFDMTLNSERAINELGYRPRYSMAEGIVLAGEWLSAQRSGQHG	not soluble
MGSDKIHHHHHHMAGFRPKASPRLSPDAERLVADALALDASGSRMEDAYWERRLSQRLGRLLKNGSQTALDAALEHLFKHNADASDVLAEQAETLAESAMVEVDGVRYDALLVAAPILAHTRYAIPSGSLKPDLAQTLAVHLQAHVLATGTKVALSPYLYSIDQLPRTHSDTFALTHKLAAAALSGTVPKVDLRDLPETAPILADPRYLLAVVVAPHEQALFRWQEDAKEHHAERSTCLEQWRSQVQATVALLLPGCEFELLLPDAFFLSCRESDKSIRPLTVRAAVNYLSGTLDVPAGQLAAVVAAFGEEVVEEYRVGFTMRGEKDVIYGIVWPVYGREAGEVDADEKGNPLEQICEELRNAGVEDIFRHAALFDPEYCEDCGTPLYADRNGEIVHAELPEDAPTQQPLFH	not soluble
MKKYQQLFKQIQETIQNETYAVGDFLPSEHDLMEQYQVSRDTVRKALSLLQEEGLIKKIRGQGSQVVKEETVNFPVSNLTSYQELVKELGLRSKTNVVSLDKIIIDKKSSLITGFPEFRMVWKVVRQRVVDDLVSVLDTDYLDMELIPNLTRQIAEQSIYSYIENGLKLLIDYAQKEITIDHSSDRDKILMDIGKDPYVVSIKSKVYLQDGRQFQFTESRHKLEKFRFVDFAKRKK	not soluble
MSISWSMSRNMFKLAHISDVHLGPLPRLSIQELFSKRITGFVNWHRNRRKHLFASTLDLLLDDIRTHRADHLAVTGDLVNLASGIEIRAAAAWLRALGDPADTSVVPGNHDAYVPGAYEKSMRAWYDYVRGDLAPPQWQEDRRIFPYLRVRDKVAIVGCSTAVATPPFAASGFFSARQARDTVNMLRAAGEAGLFRVVMIHHPPIRGATAFHKRMIGIRRFAAVISTGGAELVLHGHTHLNTLHWLRGQVQPVPVVGIASASQGPGSIKPPAAYNLFSIDGAPGAWELTGERFSLNRTGDAMMPESVDIFAPLEHHHHHH	not soluble
MGSDKIHHHHHHMTWLPLNPIPLKDRVSMIFLQYGQIDVIDGAFVLIDKTGIRTHIPVGSVACIMLEPGTRVSHAAVRLAAQVGTLLVWVGEAGVRVYASGQPGGARSDKLLYQAKLALDEDLRLKVVRKMFELRFGEPAPARRSVEQLRGIEGSRVRATYALLAKQYGVTWNGRRYDPKDWEKGDTINQCISAATSCLYGVTEAAILAAGYAPAIGFVHTGKPLSFVYDIADIIKFDTVVPKAFEIARRNPGEPDREVRLACRDIFRSSKTLAKLIPLIEDVLAAGEIQPPAPPEDAQPVAIPLPVSLGDAGHRSS	not soluble
LDSKTLARRVLVAQMLATANNVYPTSQTFREKLANLYGAQFSTCISKKGKVHIVDIDISFVSDKFILEGKSILGEIIHFLRAALFKPLISVEHYQSKSFDLEKEN	not soluble
MASYAELFDIGEDFAAFVGHGLATEQGAVARFRQKLESNGLPSALTERLQRIERRYRLLVAGEMWCPDCQINLAALDFAQRLQPNIELAIISKGRAEDDLRQRLALERIAIPLVLVLDEEFNLLGRFVERPQAVLDGGPQALAAYKAGDYLEHAIGDVLAIIEGAAR	soluble
